According to the supplement of paper PMC7877785:
± gives the uncertainty stated by the source.

Test: self-splicing fitness, log relative to wild type (ln ratio); higher = more splicing; Tetrahymena group I intron in knt gene, E. coli kanamycin selection, DiMSum; sequences stand for … in CUCUCU…GGAGGGAAAAGUUAUCAGGCAUGCACCUGGUAGCUAGUCUUUAAACCAAUAGAUUGCAUCGGUUUAAAAGGCAAGACCGUCAAAUUGCGGGAAAGGGGUCAACAGCCGUUCAGUACCAAGUCUCAGGGGAAACUUUGAGAUGGCCUUGCAAAGGGUAUGGUAAUAAGCUGACGGACAUGGUCCUAACCACGCAGCCAAGUCCUAAGUCAACAGAUCUUCUGUUGAUAUGGAUGCAGUUCACAGACUAAAUGUCGGUCGGGGAAGAUGUAUUCUUCUCAUAAGAUAUAGUCGGACCUCUCCUUAAUGGGAGCUAGCGGAUGAAGUGAUGCAACACUGGAGCCGCUGGGAACUAAUUUGUAUGCGAAAGUAUAUUGAUUAGUUUUGGAGUACUCGUGGUCG
Outline: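 Library with all eight P1ex-region intron nucleotides randomised, intron inside the knt kanamycin-resistance gene on pET-22b(+), in E. coli BL21(DE3). Cells grew overnight at 37°C or 30°C on LB agar with or without 25 μg/mL kanamycin (plus 100 μg/mL carbenicillin, 50 μM IPTG, 0.2% rhamnose), in six replicate transformations. Pooled colonies were amplicon-sequenced on Illumina HiSeq 2500. DiMSum fitness is the error-weighted combination of wild-type-normalised replicate fold changes, kanamycin versus none.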

Sequence | self-splicing fitness (ln) (30 °C) | self-splicing fitness (ln) (37 °C)
CGCUAGCAAUAUUACGGUGG | -1.71 ± 0.12 | -2.3 ± 0.17
CGGAAGCAAUAUUACGAAUU | -3.28 ± 0.36 | -2.77 ± 0.44
CGGAAGCAAUAUUACGACCC | -0.496 ± 0.27 | -0.781 ± 0.33
CGGAAGCAAUAUUACGAGAU |  | -2.18 ± 0.33
CGGAAGCAAUAUUACGAGGG | -0.374 ± 0.41 | 
CGGAAGCAAUAUUACGAUGG | -0.404 ± 0.096 | 0.233 ± 0.13
CGGAAGCAAUAUUACGCCGC | -2.96 ± 0.28 | -2.51 ± 0.35
CGGAAGCAAUAUUACGGCGC | -1.89 ± 0.37 | -0.448 ± 0.28
CGGAAGCAAUAUUACGGGAA | -3.16 ± 0.46 | -2.3 ± 0.28
CGGAAGCAAUAUUACGGGGG | -3.72 ± 0.13 | -3.16 ± 0.13
CGGAAGCAAUAUUACGGUCA | -0.599 ± 0.078 | 0.421 ± 0.08
CGGAAGCAAUAUUACGGUCG | -1.55 ± 0.099 | -0.978 ± 0.12
CGGAAGCAAUAUUACGGUGU | -3.77 ± 0.18 | -2.1 ± 0.12
CGGAAGCAAUAUUACGGUUA | -1.96 ± 0.18 | -2.25 ± 0.2
CGGAAGCAAUAUUACGGUUC | -3.49 ± 0.3 | -2.85 ± 0.25
CGGAAGCAAUAUUACGGUUU | -4.42 ± 0.36 | -3.88 ± 0.31
CGGAAGCAAUAUUACGUCGG | -0.77 ± 0.064 | 0.0281 ± 0.099
CGGAAGCAAUAUUACGUGAA | -3.4 ± 0.17 | -1.66 ± 0.15
CGGAAGCAAUAUUACGUGAG | -0.991 ± 0.058 | -0.391 ± 0.085
CGGAAGCAAUAUUACGUUCG | -2.69 ± 0.18 | -2.29 ± 0.34
CGGAAGCAAUAUUACGUUUC | -4.04 ± 0.29 | -2.69 ± 0.23

Sequence | self-splicing fitness (ln) (30 °C) | self-splicing fitness (ln) (37 °C)
CGGCAGCAAUAUUACGAACA | -0.789 ± 0.096 | -0.204 ± 0.12
CGGCAGCAAUAUUACGAAGU | -3.35 ± 0.28 | -0.302 ± 0.2
CGGCAGCAAUAUUACGAAUG | 0.0635 ± 0.086 | -0.00804 ± 0.099
CGGCAGCAAUAUUACGACAG | 0.187 ± 0.11 | -1.27 ± 0.12
CGGCAGCAAUAUUACGACCC | -0.681 ± 0.19 | 0.752 ± 0.29
CGGCAGCAAUAUUACGACUA | -0.68 ± 0.097 | 0.0629 ± 0.12
CGGCAGCAAUAUUACGAGCC | -2.78 ± 0.24 | -1.37 ± 0.21
CGGCAGCAAUAUUACGAUCG | -2.76 ± 0.18 | -1.97 ± 0.19
CGGCAGCAAUAUUACGCCGG | -2.15 ± 0.17 | -2.16 ± 0.23
CGGCAGCAAUAUUACGCUCA | -0.116 ± 0.15 | -0.137 ± 0.16
CGGCAGCAAUAUUACGGACA | -0.835 ± 0.12 | 0.127 ± 0.11
CGGCAGCAAUAUUACGGCGC | -2.64 ± 0.27 | -2.53 ± 0.24
CGGCAGCAAUAUUACGGGCU | -3.81 ± 0.22 | -2.16 ± 0.24
CGGCAGCAAUAUUACGGUCC | -1.34 ± 0.082 | 0.00991 ± 0.09
CGGCAGCAAUAUUACGGUGG | -1.41 ± 0.09 | -0.157 ± 0.082
CGGCAGCAAUAUUACGUAUU | -3.6 ± 0.16 | -3.11 ± 0.18
CGGCAGCAAUAUUACGUCGU | -3.21 ± 0.2 | -2.64 ± 0.21
CGGCAGCAAUAUUACGUCUC | -1.24 ± 0.065 | -0.433 ± 0.086
CGGCAGCAAUAUUACGUGCG | -3 ± 0.16 | -2.54 ± 0.16
CGGCAGCAAUAUUACGUGGG | -3.46 ± 0.14 | -2.24 ± 0.11
CGGCAGCAAUAUUACGUUGU | -2.18 ± 0.11 | -2.68 ± 0.19
